Test results reported in PMC2289016.

Columns and labels:
[1] = target: rabbit skeletal muscle actin (rabbit) (UniProt P68135); test: actin elongation rate at the barbed end
[2] = target: rabbit skeletal muscle actin (rabbit) (UniProt P68135); test: ultrafiltration

Kd [1]: 22.5 µM
Kd [2]: 2.3 µM
Substance: human platelet profilin (from UniProt P07737 1-140) (natural protein)
